The EC50 is the midpoint of the concentration-response curve. Low readings indicate greater potency, high ones weaker potency.

Data on one molecule can be found in patent US20230167200A1 (published 2023).

The target in assay [1] is T1, human PD-L2 expressed on CHO cells (CHO-hPD-L2 cells) (human, UniProt Q9BQ51 20-273).
T1 chain: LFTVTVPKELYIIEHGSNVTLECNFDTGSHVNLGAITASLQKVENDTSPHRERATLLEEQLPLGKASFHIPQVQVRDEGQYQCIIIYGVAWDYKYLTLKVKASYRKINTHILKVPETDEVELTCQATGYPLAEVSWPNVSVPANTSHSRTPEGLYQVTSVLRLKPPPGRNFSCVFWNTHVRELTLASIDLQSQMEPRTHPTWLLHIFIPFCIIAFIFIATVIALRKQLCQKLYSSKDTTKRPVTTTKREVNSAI
Kind of assay: flow cytometry cell binding. (A flow cytometer gives signals particle by particle.)

Assay [2] deals with human PD-L1 expressed on CHO cells (CHO-hPD-L1 cells) (human, UniProt Q9NZQ7 19-290). In words: flow cytometry cell binding.
Sequence of human PD-L1 expressed on CHO cells (CHO-hPD-L1 cells) (Q9NZQ7 19-290): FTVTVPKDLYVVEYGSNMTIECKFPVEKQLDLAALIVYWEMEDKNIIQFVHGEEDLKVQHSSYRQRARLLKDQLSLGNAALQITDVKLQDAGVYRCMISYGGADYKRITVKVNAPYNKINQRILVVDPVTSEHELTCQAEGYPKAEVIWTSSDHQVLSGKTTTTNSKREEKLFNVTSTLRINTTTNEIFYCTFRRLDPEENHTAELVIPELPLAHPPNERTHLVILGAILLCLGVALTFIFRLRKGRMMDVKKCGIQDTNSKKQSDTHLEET

B1: anti-PD-L1/PD-L2 bispecific antibody Fc fusion protein Bi-203-204 (bispecific antibody, V domains shown)
V domain 1: QVQLVESGGGLVKPGGSLRLSCAASGHTFIIYAIGWFRQAPGKGLEFVATINWSGSMTNYADSVKGRFTISRDNAKNTVYLQMNSLKPDDTAVYYCAAYVGATISTAHSRYDYWGQGTLVTVSS
V domain 2: EVQLVESGGGLVQPGGSLRLSCAASGRTFSSMTIGWFRQAPGKGLEFVSGIGWTSGLTVYADSVKGRFTISRDNAKNSMYLQMNSLRAEDTAVYYCAADSMNRGQFDYWGQGTLVTVSS
For B1, the EC50 in assay [1] was determined as 1.25 nM; in assay [2], 3.79 nM.
